Assay [1] addresses CS40 anti-ManLAM monoclonal antibody. Kind of assay: competitive ELISA, ManLAM-coated plate, CS40 (1:2000) mixed with peptide; at 50 µg/ml peptide.
For assay [2] the target is unchanged. As to the kind of experiment: competitive ELISA, ManLAM-coated plate, CS40 (1:2000) mixed with peptide.

For ISLTEWSMWYRH [B11 synthetic peptide], in assay [1], the decrease in OD (inhibition of CS40 binding to ManLAM) turned out to be 100%. In assay [2], this molecule showed a peptide concentration giving 100% decrease in OD of 50 µg/mL.

Values taken from patent US20080318868A1.
